Experimental data as given in patent US20250332264A1, “GhR-BINDING PEPTIDE AND COMPOSITION COMPRISING SAME” (priority 2021, published 2025).
Starred links: 1 amine or outer side, 2 acyl side, 3 side chain; linkers in the order of their positions; H or OH if unused. Positions of bridges follow the written chain, without caps; N, C: chain ends. Non-standard residues stand in square brackets, D forms with d. Groups on a side chain read outwards from the residue. *: point of attachment. KCOpipzaa = N6-(4-(carboxymethyl)piperazine-1-carbonyl)-L-lysine, O=C(NCCCC[C@H](N[*:1])C(=O)[*:2])N1CCN(CC(=O)[*:3])CC1; A4pipaa = 4-amino-1-(carboxymethyl)piperidine-4-carboxylic acid, O=C(C1(N[*:1])CCN(CC(=O)[*:3])CC1)[*:2]; Trp(1-CH2CO) = O=C([C@H](Cc1cn(CC(=O)[*:3])c2ccccc12)N[*:1])[*:2]; Trp(5-OMe) = COc1ccc2[nH]cc(C[C@H](N)C(=O)O)c2c1; Butanoyl(4-(4-I-phenyl)) = O=C(CCCc1ccc(I)cc1)*; Trp(5-OH) = N[C@@H](Cc1c[nH]c2ccc(O)cc12)C(=O)O; Phe(4-COOH) = N[C@@H](Cc1ccc(C(=O)O)cc1)C(=O)O; C16 diacid = O=C(O)CCCCCCCCCCCCCCC(=O)*; NMeK = CN[C@@H](CCCCN)C(=O)O; Aib = CC(C)(N)C(=O)O; Sar = CNCC(=O)O

B1: GhR_PD_205 (peptide)
peptide: {CH2CO}-YKVVSN[Trp(5-OMe)]YK[Trp(5-OH)][A4pipaa]VC-NH2
modifications: thioether N-13; not fully specified (residue 2); also: albumin binder E-4IPhpCO, attachment site not given here
notes: No linker; also called Compound No. 45

Target: T1, Recombinant human GhR-Fc protein (R&D Systems) (human, UniProt P10912 19-264, limits assumed)
T1 construct: Bought from R&D Systems; Amine-coupled to a CM5 chip in the SPR assay; also called hGhR; recombinant human GhR protein fused to Fc portion of human IgG; not shown: Fc portion of human IgG
T1 sequence (looked up): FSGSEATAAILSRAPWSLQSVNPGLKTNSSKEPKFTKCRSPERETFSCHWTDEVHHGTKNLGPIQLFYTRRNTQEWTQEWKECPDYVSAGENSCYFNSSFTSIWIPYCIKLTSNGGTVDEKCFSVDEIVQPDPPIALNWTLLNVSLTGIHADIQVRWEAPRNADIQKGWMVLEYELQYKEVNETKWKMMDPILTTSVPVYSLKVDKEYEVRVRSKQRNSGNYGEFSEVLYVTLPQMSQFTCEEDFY
Test: SPR, Biacore T200, single-cycle kinetics, GhR-Fc immobilised on CM5
Method: SPR assay was performed using Biacore T200 (cytiva: Former GE Healthcare). After the equilibration of Series S Sensor Chip CM5 (produced by cytiva: Former GE Healthcare) with Running Buffer (HBS-EP with 1% (v/v) DMSO), an EDC/NHS mixture was injected at a flow rate of 10 μL/min for 7 minutes to thereby activate the functional groups on sensor chip. Recombinant human GhR-Fc protein (R&D Systems) in 10 mM Acetate (pH4.0) was injected immobilized to at a flow rate of 5 μL/min. It took 7 minutes to immobilize the GhR on the substrate surfaces of the sensor chip. Then Ethanolamine was injected at a flow rate of 10 μL/min for 7 minutes. 1M Ethanolamine (aq.) was injected at a flow rate of 10 μL/min for 420 seconds for capping. 10 mM Peptides in DMSO were diluted to obtain 10 uM with Running Buffer, and prepared 100 nM, 50 nM, 25 nM, 10 nM, 5 nM of each peptide solutions (Peptide Samples).
Using these Peptide Samples, kinetics of peptides against human GhR-Fc protein were measured. The method adopted for sample measurement was a single-cycle kinetics method. The analysis was conducted using the evaluation software provided with Biacore T200. A DMSO correction curve obtained by solvent correction measurements was applied for the analysis. Kinetics fitting was done on the difference data obtained by subtracting the baseline data from sample measurement data. KD values were calculated based on the association rate constant (ka) and dissociation rate constant (kd).

Compared with {CH2CO}-Y[NMeK]VVSN[Trp(1-CH2CO)][Phe(4-COOH)]K[Trp(5-OH)][Aib]VCK([Glu-Glu-Butanoyl(4-(4-I-phenyl))])-NH2 (thioether N-13; lactam 2-7, also called Compound No. 26) [GhR_PD_216], {CH2CO}-Y[NMeK]VVSN[Trp(1-CH2CO)][Phe(4-COOH)]K[Trp(5-OH)][Aib]VCK([Glu-Glu-C16 diacid])-NH2 (thioether N-13; lactam 2-7, also called Compound No. 24) [GhR_PD_232] is 1.6-fold higher in Kd: 1.59 nM for the first, 2.59 nM for the second.

Going from {CH2CO}-Y[NMeK]VVSN[Trp(1-CH2CO)][Phe(4-COOH)]K[Trp(5-OH)][A4pipaa]VCK([Glu-Glu-C16 diacid])-NH2 (thioether N-13; lactam 2-7, also called Compound No. 23) [GhR_PD_239] to {CH2CO}-[Phe(4-COOH)][NMeK]VVSN[Trp(1-CH2CO)]YK[Trp(5-OH)][Aib]VCK([Glu-Glu-Butanoyl(4-(4-I-phenyl))])-NH2 (thioether N-13; lactam 2-7, also called Compound No. 21) [GhR_PD_215], the Kd falls from 2.29 nM to 1.07 nM (2.1-fold).

{CH2CO}-Y[NMeK]VVSN[Trp(1-CH2CO)]YK[Trp(5-OH)][Aib]VCG-NH2 (thioether N-13; lactam 2-7 via P, also called Compound No. 4) [GhR_PD_142] and {CH2CO}-Y[NMeK]VVSN[Trp(1-CH2CO)]YK[Trp(5-OH)][Aib]VCG-NH2 (thioether N-13; lactam 2-7 via G, also called Compound No. 2) [GhR_PD_140] are within 1.5-fold of each other in Kd: 1.07 nM for the first, 1.22 nM for the second.

{CH2CO}-[Phe(4-COOH)][NMeK]VVSN[Trp(1-CH2CO)]YK[Trp(5-OH)][A4pipaa]VCK([Glu-Glu-C16 diacid])-NH2 (thioether N-13; lactam 2-7, also called Compound No. 18) [GhR_PD_238] and {CH2CO}-Y[NMeK]VVSN[Trp(1-CH2CO)]Y[KCOpipzaa][Trp(5-OH)][Aib]VCK([Glu-Glu-C16 diacid])-NH2 (thioether N-13; lactam 2-7, also called Compound No. 27) [GhR_PD_234] are within 1.5-fold of each other in Kd: 2.4 nM for the first, 1.79 nM for the second.

Compared with {CH2CO}-[Phe(4-COOH)][NMeK]VVSN[Trp(1-CH2CO)]YK[Trp(5-OH)][Aib]VCK([Glu-Glu-C16 diacid])-NH2 (thioether N-13; lactam 2-7, also called Compound No. 19) [GhR_PD_231], B1 is 1.7-fold higher in Kd: 1.93 nM for the first, 3.36 nM for the second.

{CH2CO}-Y[NMeK]VVSN[Trp(1-CH2CO)]YK[Trp(5-OH)][Aib]VCG-NH2 (thioether N-13; lactam 2-7 via Sar, also called Compound No. 3) [GhR_PD_141] was tested, and the Kd was 1.71 nM.
